According to patent US20220411519A1 (SHANGHAI NOVAMAB BIOPHARMACEUTICALS, published 2022):

Key:
[1] = target: T1, human IL-4R on cells (293F/IL-4R cells; HEK293F cells with high IL-4Rα expression) (human, UniProt P24394 26-825); assay: cell-based or functional assay
[2] = target: T1, human IL-4R on cells (293F/IL-4R cells; …); assay: flow cytometry on HEK293F cells with high IL-4Rα expression, anti-human Fc-FITC
Experimental: (1) HEK293F cells with high IL-4Rα expression were collected, centrifuged at 1000 rpm for 5 min, and the supernatant was discarded. The cells were re-suspended with 5 mL PBS and centrifuged at 1000 rpm for 5 min, and the supernatant was discarded. Then the cells were re-suspended with 2 mL PBS, and counted. The cells were divided into 96-well plates with 3×10⁵ cells per well; (2) Humanized antibody huNb103 (amino acid sequence refers to SEQ ID NO:16) and Dupilumab were diluted by 2-fold gradient dilution (40 ug/mL, 20 ug/mL, 10 ug/mL, 5 ug/mL, 2.5 ug/mL, 1.25 ug/mL, 0.625 ug/mL, 0.313 ug/mL, 0.156 ug/mL, 0.078 ug/mL). The cells in the 96-well plate were resuspended with the diluted antibody and incubated at 4° C. for 20 min. (3) Centrifugation was performed at 3000 rpm at 4° C. for 4 min, and 200 ul PBS was added to each well. After resuspension, centrifugation was performed at 3000 rpm at 4° C. for 4 min. (4) Diluted anti-human Fc-FITC antibody (diluted at 1:200) was added and incubated at 4° C. for 20 min. (5) Centrifugation was performed at 3000 rpm at 4° C. for 4 min, and the supernatant was discarded, 200 uL PBS was added into each well to wash cells for two times, then 200 uL PBS was added to re-suspend the cells. The cells were transferred to flow tube to detect FITC signal of each sample via flow cytometry.

[3] = target: T1, human IL-4R on cells (293F/IL-4R cells; …); assay: flow cytometry blocking of IL-4/IL-4R on HEK293F cells with high IL-4Rα expression, SA-PE
Experimental: (1) HEK293F cells with high IL-4Rα expression were collected, centrifuged at 1000 rpm for 5 min, and the supernatant was discarded. The cells were re-suspended with 5 mL PBS and centrifuged at 1000 rpm for 5 min, and the supernatant was discarded. Then the cells were re-suspended with 2 mL PBS, and counted. The cells were divided into 96-well plates with 3×10⁵ cells per well. (2) Humanized antibody huNb103 (amino acid sequence refers to SEQ ID NO:16) and Dupilumab were diluted by 2-fold gradient dilution (40 ug/mL, 20 ug/mL, 10 ug/mL, 5 ug/mL, 2.5 ug/mL, 1.25 ug/mL, 0.625 ug/mL, 0.313 ug/mL, 0.156 ug/mL, 0.078 ug/mL). The cells in the 96-well plate were resuspended with the diluted antibody and incubated at 4° C. for 20 min. (3) Centrifugation was performed at 3000 rpm at 4° C. for 4 min, and 200 ul PBS was added to each well. After resuspension, centrifugation was performed at 3000 rpm at 4° C. for 4 min. (4) Diluted SA-PE staining solution (diluted at 0.3:100) was added and incubated at 4° C. for 20 min. (5) Centrifugation was performed at 3000 rpm at 4° C. for 4 min, and the supernatant was discarded, 200 uL PBS was added into each well to wash cells for two times, then 200 uL PBS was added again to re-suspend the cells. The cells were transferred to flow tube to detect PE signal of each sample via flow cytometry.

rhesus monkeys IL-4R = rhesus monkeys IL-4R (rhesus monkey, UniProt F6RUR0 26-232); assay: ELISA, coated IL-4R, same method as for FIG. 6
Experimental: (§1) ELISA was used to verify whether the candidate antibody could cross-react with IL-4R proteins of different species, and the method was as follows: (1) 1 ug/mL human IL-4R, mouse IL-4R and cynomolgus monkey IL-4R were added into the plate and coated overnight at 4° C. with 100 uL/well. (2) After washing with PBST for 5 times, 300 uL 1% BSA was added to each well and sealed for 2 hours at room temperature. (3) After washing with PBST for 5 times, 100 uL of 2 ug/mL antibody to be tested was added and incubated at 37° C. for 1 hour. (4) After washing with PBST for 5 times, 100 uL diluted anti-HA antibody (diluted at 1:2000) was added and incubated at 37° C. for 1 hour. (4) After washing with PBST for 5 times, 100 uL diluted anti-mouse IgG antibody (diluted at 1:2000) was added and incubated at 37° C. for 30 minutes. (5) After washing with PBST for 5 times, 100 uL PA chromogenic solution was added and developing at 37° C. for 10 minutes, and the absorption value was measured at 405 nm wavelength with a microplate reader. The results are shown in FIG. 6, the candidate antibody Nb103 can recognize the human IL-4R, but not mouse and cynomolgus monkey IL-4R.
ELISA was used again to verify whether the candidate antibody could cross-react with IL-4R protein of different monkey types. The detection method was the same as above. […]

mouse IL-4R = target: T2, mouse IL-4R (mouse, UniProt P16382 26-233, limits assumed); assay: ELISA, IL-4R coated at 1 ug/mL, anti-HA detection
T2 sequence (looked up): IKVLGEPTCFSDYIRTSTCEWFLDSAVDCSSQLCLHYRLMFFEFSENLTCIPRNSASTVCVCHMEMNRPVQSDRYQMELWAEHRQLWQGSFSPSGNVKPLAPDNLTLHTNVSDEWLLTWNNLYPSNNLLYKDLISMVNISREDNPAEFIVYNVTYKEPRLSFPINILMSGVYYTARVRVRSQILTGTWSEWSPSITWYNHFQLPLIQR
Experimental: as §1

cynomolgus monkey IL-4R = cynomolgus monkey IL-4R (cynomolgus monkey, UniProt A0A2K5V580 33-239); assay: ELISA, IL-4R coated at 1 ug/mL, anti-HA detection
Experimental: as §1

[4] = target: T1, human IL-4R on cells (293F/IL-4R cells; …); assay: flow cytometry competition: antibody titrated against 5 ug/mL IL-4-biotin on 293F/IL-4R cells, SA-PE
Experimental: (1) A certain number of 293F/IL-4R cells that were transitioned for 48 h were centrifuged at 1000 rpm for 5 min, the supernatant was discarded, the cells were re-suspended and washed with PBS for once, and counted. The cells were divided into 96-well plates at 100 ul/well, and then centrifuged at 3000 rpm at 4° C. for 4 min. (2) The supernatant was aspirated, and the single-domain antibody with different sequences in gradient diluted in example 1 was added (two-fold gradient dilution starting from 40 ug/mL). 50 uL was added to each well, and then 50 uL of 5 ug/mL IL-4-biotin was added to mix, and incubated at 4° C. for 20 min. (3) Centrifugation was performed at 3000 rpm at 4° C. for 4 min, and the supernatant was discarded. 200 uL PBS was added to each well to wash the cells, and the supernatant was discarded by centrifugation again. Diluted SA-PE staining solution was added and incubated at 4° C. for 20 min. (4) Centrifugation was performed at 3000 rpm at 4° C. for 4 min, and the supernatant was discarded. 200 uL PBS was added to each well to wash the cells, and the supernatant was discarded by centrifugation again. 200 uL PBS was added to re-suspend the cells, and the PE signal of the samples was detected by flow cytometry.

B1: humanized antibody huNb103 (humanized single-domain antibody fused with Fc) (Fc fusion)
chain: EVQLVESGGGLVQPGGSLRLSCAASGSTSYRYCMAWFRQAPGKGLEAVASIRPRSGRAYYADSVKGRFTISRDNSKNTLYLQMNSLRAEDTAVYYCAASDNDGNCQDYWGKGTLVTVSSESKYGPPCPPCPAPEFLGGPSVFLFPPKPKDTLMISRTPEVTCVVVDVSQEDPEVQFNWYVDGVEVHNAKTKPREEQFNSTYRVVSVLTVLHQDWLNGKEYKCKVSNKGLPSSIEKTISKAKGQPREPQVYTLPPSEEMTKNQVSLTCLVKGFYPSDIAVEWESNGQPENNYKTTPPVLDSDGSFFLYSRLTVDKSRWQEGNVFSCSVMHEALHNHYTQKSLSLSLG
notes: called bivalent, so two chains; expressed in HEK293F; also called humanized bivalent antibody; human bivalent antibody
inhibition of TF-1 cell proliferation induced by IL-4 (CCK8, OD450) [1]: 0.032 µg/mL | inhibition of TF-1 cell proliferation induced by IL-13 (CCK8, OD450) [1]: 0.059 µg/mL | EC50 [2]: 0.286 µg/mL | IC50 [3]: 0.474 µg/mL

B2: humanized tetravalent antibody tet-huNb103 (Fc fusion)
chain: EVQLVESGGGLVQPGGSLRLSCAASGSTSYRYCMAWFRQAPGKGLEAVASIRPRSGRAYYADSVKGRFTISRDNSKNTLYLQMNSLRAEDTAVYYCAASDNDGNCQDYWGKGTLVTVSSGGGGSGGGSEVQLVESGGGLVQPGGSLRLSCAASGSTSYRYCMAWFRQAPGKGLEAVASIRPRSGRAYYADSVKGRFTISRDNSKNTLYLQMNSLRAEDTAVYYCAASDNDGNCQDYWGKGTLVTVSSESKYGPPCPPCPAPEFLGGPSVFLFPPKPKDTLMISRTPEVTCVVVDVSQEDPEVQFNWYVDGVEVHNAKTKPREEQFNSTYRVVSVLTVLHQDWLNGKEYKCKVSNKGLPSSIEKTISKAKGQPREPQVYTLPPSEEMTKNQVSLTCLVKGFYPSDIAVEWESNGQPENNYKTTPPVLDSDGSFFLYSRLTVDKSRWQEGNVFSCSVMHEALHNHYTQKSLSLSLG
inhibition of TF-1 cell proliferation induced by IL-4 (CCK8, OD450) [1]: 0.02 µg/mL | inhibition of TF-1 cell proliferation induced by IL-13 (CCK8, OD450) [1]: 0.026 µg/mL

B3: IL-4R single-domain antibody Nb103 (VHH)
VHH: QVQLQESGGGSVQAGGSLRVSCAASGSTSYRYCMAWFRQAPGKEREAVASIRPRSGRAYYADSVKGRFTISLDNAKNTLYLQMNSLKPEDTAMYYCAASDNDGNCQDYWGKGTQVTVSS
notes: also called candidate single-domain antibody Nb103; IL-4Ra Nb103 antibody; not shown: tag(s) from the pMECS phage vector
inhibition of TF-1 cell proliferation induced by IL-4 (CCK8, OD450) [1]: 0.149 µg/mL | inhibition of TF-1 cell proliferation induced by IL-13 (CCK8, OD450) [1]: 0.066 µg/mL | binding result (rhesus monkeys IL-4R): no binding | binding result (mouse IL-4R): no binding (tested: 2 ug/mL antibody) | binding result (cynomolgus monkey IL-4R): no binding (tested: 2 ug/mL antibody) | IC50 [4]: 0.274 µg/mL

B4: Dupilumab (antibody, V domains shown)
VH: EVQLVESGGGLEQPGGSLRLSCAGSGFTFRDYAMTWVRQAPGKGLEWVSSISGSGGNTYYADSVKGRFTISRDNSKNTLYLQMNSLRAEDTAVYYCAKDRLSITIRPRYYGLDVWGQGTTVTVSS
VL: DIVMTQSPLSLPVTPGEPASISCRSSQSLLYSIGYNYLDWYLQKSGQSPQLLIYLGSNRASGVPDRFSGSGSGTDFTLKISRVEAEDVGFYYCMQALQTPYTFGQGTKLEIKR
EC50 [2]: 0.36 µg/mL | IC50 [4]: 0.511 µg/mL | IC50 [3]: 1.13 µg/mL
